Experimental data published in publication PMC9744130.

Target: BtAAV-10HB capsid viral proteins (VP1, VP2, VP3) assembled as the capsid (bat adeno-associated virus BtAAV-10HB)
Experiment: cryo-EM structure

Substance: BtAAV-10HB capsid viral proteins (VP1, VP2, VP3) assembled as the capsid (complex)
- stoichiometry N: 60
